The results in this text go back to the supplement of paper PMC12455559.

The data set can be described thus: purified protein yield per well (BCA); higher = higher soluble expression. The method, then: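 Candidate PET hydrolases were expressed in E. coli C41(DE3) in 2 mL autoinduction cultures in 24-deep-well plates, Ni-bead purified and released by SUMO protease cleavage on an OT-2 robot. Yield per well was measured by BCA; values below 25 ug (0.1 mg/mL) are below the detection threshold. Melting temperature was measured by differential scanning fluorimetry with Sypro Orange, ramping from 25 C at 0.3 C/step.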
In the case of “QDCDSLKISSISNPGPYKVKKILEKDGLRDGPDYYGATLYYPEDATPPFASIVIVPGFWSYEPSIQAWGPFLASHGIVTLTIGTNILSDFPEQRALALLDAAETIKQEIIRESSPLYGSLDPTKIAVSGWSMGGGGAQMAAVLDTTLKAVMALAPWQNTQLTETAFNHPVPTLIFSGEKDPTAPASMHATVHYNYTPQTTSKLLFEIKNGNHSVANTPEGGNGDVGRIAIAWLKNLLVGQPCYCPLLLDPPVSASKYVTNLQCSSIASVSRPDGKDDFSP [TEP159]”, the “purified protein yield per well” value is below 25 µg.
To “AENPYQRGPDPTPASVSANRGSFATTQVSVPSGNGFGGGIIYYPTDTSQGKFGAIAIVPGYTATWAAEGAWMGHWLASFGFVVIGIDTNNRNDWDNARGQQLLAALDYLTQRSSVRDRVDATRAAVMGHSMGGGGAAYASLQRPTLKTSVGLAPASFSQNLTTTRVPTMLLSGQNDGTVTPSSVLNLYNGIPAGVEKAYLELTGAGHGFPTSNNPTMMRVVIPWFKVFIDSDTRYTQFLCPLSNGNGIRSYQSTCPLVPSTPPTSTTTSTTTTTTTTTTTTTTTTSTSTTTTTPQPGGACSAVFRTTNSWPGGYQAEVTVTAGDSGVSGWTTHWTLGSGESVSQVWNGALTVSGSSVSVRNVSYNGSLAPNRSTTFGFIGGGAPPTSPFTCTSP [ESM029]” belongs below 25 µg.
As for “VENGPVPTLADLKKDGPYAVTSQKVAGSGFGSGTIYSPNTAGKYALVAVCPGFVSAESSITDISRRLATHGFVVITIGTKTLLDFPSSRATQLLAALKTATTTTTGPVVGKIDTARQVVSGWSMGGGGTLEAAGITPGLKAAVAYAPWHSTTTKIKTSTVPSIIFGATGDVVAPVASHSQKFYDVLPTSTKKQLAVLQGSNHFFPNSAIEPVSYSNISWVKRFADGDTRYSQFLSVADPAWSKVQSNGPF [ESM166]”, the “purified protein yield per well” value is below 25 µg.
Regarding “QPIDSLETLSIKEQSTITLPTTLATKIPLTEVPATKIPLTTTTSTSPTSNCIPDSVITAAELSATRDNGPFTVATKSVPRQLANGFGGGTIHYPTNAGDCGLLGGIAVIPGYVSYEASIKWWGPRLASWGFVVITIDTNSIYDDPDSRATQLSAALDHILSDSTVGAQIDSTRLGAIGWSMGGGGALQLATKRSDIRVIIPQTPYHDKDYGNMDTPALFITCQNDRIASNKKYSSPFYNNAAGAKMKIEIKNGSHFCPSYRFNEILLSKPGIAWMHRYINGDTRFDKFLCNNENYGNSPRISAYDYKDCG [TEP174]”, the “purified protein yield per well” value is below 25 µg.
As to “LKADGPYAVSSQTVKGNGFGAGTVYSPNTPGKYAVVAVCPGFVSAESSMTAISKRLATHGFVVVTIATNTLFDFPSSRATQLLAALKTVTALTTGPVAGKMDTSRQGVSGWSMGGGGTLEAAGATPGLVSAVAYAPWDTSTTKMKVNKVPVAIIGGSADTVASVSAHSQKFYDAIPATTPKMLPVINGADHFFPTKASEPASYHNI [ESM072]”, the “purified protein yield per well” value was below 25 µg.
As to “ADNPYERGPAPTRASIEAPRGPYAVSQTSVSSLLVSGFGGGTIYYPTSTSDGTFGAVVVTPGFTATESSMAWLGPRLASQGFVVFTIDTLTTLDQPDSRGRQMLAALDYLTERSSARTRIDGTRLGVIGHSMGGGGTLEAAKSRPSLKAAIPLTPWNLDKTWPEVTTPTLVVGADGDTVAPVATHAKPFYSTLPSTTDRAYLELNNATHFAPNISNTTIAKYSVSWLKRFIDDDTRYEQFLCPLPEPDRDIEEYRGTCPLGG [TEP162]”, the “purified protein yield per well” value was below 25 µg.
On to “QTNPYARGPNPTRDSLEASRGPFAFSSFTVSRPSGYAGGTVYYPTNAGGTVGAIAVVPGFSARQSSINWWGPRLASHGFVVITIDTNSSFDQPPSRSRQQLAALDQVATLARTSGSPIYNKVDTTRMGVMGSSMGGGGSMISAQNRPSLKAAIPQSPSVSSTNFSSVVVPTLIFACENDTVPPGGSQAVAIYNSMMLNPKQLLEIAGGSPFCGNSN [ESM182]”, for which the “purified protein yield per well” value is below 25 µg.
On to “HAPAPQPVVVHHHAPFAVRTTVVPKTAVKAFGGGVIYTPQDTGKPVLGAVVITPGFTNTNADEKELGQLVASQGFVAFVIDTLDTGDLPAQRATEILAATDYLTGQSAVRSEVSAKDVGLIGYSFGGGGTMQAAQSRPSIKAAIGLMPFDVPPASDPHALYATYPKLTTPTLVITGQKDEVARPKDFGKPAYDSIPAGTPKQYLELKGLDHSAGEHAPVAAIRNAVTAFLKRYLDGNSAYAKFICPAPKVGGPISVSLSSCPKG [ESM155]”, for which the “purified protein yield per well” value is below 25 µg.
Take “AADNPYERGPAPTVSSIEAARGSYAVSQTSVSSLSVSGFGGGTVYYPSSTADGTFGAVVISPGFTAYQSSIAWLGPRLASQGFVVFTIDTNTTLDQPDSRGRQLLAALDYLTKSSSVRGRVDASRLGVMGHSMGGGGSLEAAKSRTSLKAAIPLTGWNADKTWPELRTPTLVVGADGDTVAPVSSHSEPFYQSLPSTLDKAYLELNGATHFTPNSSNTTIAKYSISWLKRFIDNDTRYEQFLCPLPRPSLTIEEYRGNCPHGS [TEP044]”: the “purified protein yield per well” value is below 25 µg.
With “AAPHASTAHHHAPFAVRTTVVPRTADAKFGGGVIYEPQDTGKPVLGAVVITPGFTDTNADEKEMAELVASQGFVAFAIDTLDVGDLPDQRATEILAAADYLTGQSAVKSQVSAKDLAFLGYSMGGGGTFQAAQARPSVKAAIGLMPFDIPDANDPNATTPSYPKLTTPSLVVTGQKDDVADPEYFGKPIYDSIPVGTPKQYLELTGLGHGAGEHVPAPTIRVAVTAFLKRYLDGNSAYAKYICPAPKVGGPVSASLSSCPQG [ESM176]”, the “purified protein yield per well” value is below 25 µg.
To “QTNPYARGPNPTASSLEASTGPFAYRSFTVSRPSGYGAGTVYYPTNAGGTVGAIAIVPGYTARQSSINWWGPRLASHGFVVITIDTNSTLDQPSSRSRQQMAALQQVASLNSTSSSPIYGKVDTSRMGVMGWSMGGGGSLISARDNPSLKAAAPQAPWNTSSSFSSMTVPTLIFACESDSIAPVNSHASPMYNSMRSNPRQYLEINNGSHSCANSGNSNQALIGKKGVAWMKRYMDNDTRYSTFACQNPNSTRVSDFRVANCS [ESM094]” belongs below 25 µg; to “ADNPHERGPDPTESSIEALRGSYAVSERSVSRWVSGFGGGTIYYPTTTSDGDFGAVVISPGYTGTESTVAWLGPRLASQGFVVLTMATNSIYDQPDSRARQLQAALDYLTASSPVADRIDADRLALMGHSMGGGGTLRAVDDNPDIKAAIPMTPWHPQKDWSSVSTPTLIFAAENDSVARHETHAEPFYESFEQDLPKAYLELDGASHFAPNTSNTTIAKYSISWLKRFVDDDTRYTPFLCPGPSTGWLSDVEKYESSCPF [DP076]”, below 25 µg; to “SAAGNNIGHRQGGDTFASATVIEALPFSDSGTTSGFNNDYGPYSNQSSYNICQWQGYYDNTNTGAGPDVVYSLALSEEKTVKISLCGSDYDTGLGVFDGSGVQVLGNDDACSLQSEVVCALPEGLYYIVVDGYSTSSGNYVLNVSIEEDLFGPYSVGTITEDDGLRDGPDYCCGIVYYPTDAVGYLPAIVYIPGYAGTISSNENWGPYLASHGIVTMFVNANFSLASNETRAEALLDGLVTIQDENQRPGSPLYGNLNLNQLAVAGHSRGGGAALLAAAAEPSVNAVLALAPWLEDQFINSTTLDQDVPVLFLSGQLDESAPNDVHTNLFYAYTPETTDKLLYEISGGDHFIVKDPSNNSAMAMKALYWLEKYLTNDPTHC [TEP001]”, below 25 µg.
Consider “AEDNPHERGPAPTQQSIEAEKGPFEVDKVTVPGGDGFAGGTIYFPKDTSKGKFGGVAISPGFMSFEAMVSWYGPRLASQGFVVFTIGTFTPMDIPSSRADQLLASLKFLVEKSPAKDRVDGTRLALMGHSMGGGGTLHAAARTPGLQAAIPLTPWELTSDFSKVQVPTLVFTGQADFVAPASMGKSFYQSIPDSTEKGYVELAGGSHFDPLFPNVTYAKYSISWLKRFVDNDTRYDQFLCPVPKDPKLSAIEETCPLG [DP013]”, for which the “purified protein yield per well” value is below 25 µg.
With “ADNPYQRGPDPTLAGVAASRGPFATAQMSVAPGNGFNGGTVYYPTDTSAGTWGAVAIVPGYTALFADEEAWMGPWLSSFGFVVIGIETNSRTDYDAARGTQLLAALDYLTQRSPVRDRVDTSRLSVIGHSMGGGGVVYASEHRPSLKAAVALAPFSPSQNMSTDQVPTMVMAGQNDTVVTPSYLDGLYATMPAAAQSDFVQIAGADHVYYTHPQSTEMRLLIPWLKIFVDNDTRYTQFLCPSLADPSGISIYHSKCPYVPPGGTTSGGTTSGGTTTGGTTTGGTTTGGTTTGGTTTGGTVGGGTTSGGTSGGACTATYTTVNTWSGGFQGEVKVTAGGQPISGWTVRWTLGSGQSISQVWNGAVTTSGSDVSVGNVSYNGSLQPSTSTTFGFLGAGAPTDASLSCTSP [ESM049]”, the “purified protein yield per well” value is below 25 µg.
The value for “MSGFGGGTIYYPSGTTGTMAAIVVIPGYVSSQSSIEWWGPRLASNGFVVMTIDTNATTDQPPARARQINAALDYLIAQNRASGSPVNGMIDTSRLGVVGWSMGGGGTLRVASEGRIKAAIPLAPWDTTTFRNVKAPTLIFACESDTIAPVRNHASPFYNQVPTSIPKAFVQLNRGNHYCANGGNAFNADLSRLGVSWMKRFLDNDRRFSQFLCGPNHTSDRDISEYRGNCPY [TEP104]” was below 25 µg.
To “FSFTPPPEPNPDPDPTPPCEVDCDFTRGPDPSSSYLEAASGPYSVNTINVSSSVSGFGGGTVYYPTGTSGLMGAISIAPGFFAAESSIGWWGPRLASHGFVVITIATNSIFDGTDSRATQLDRALDYVINQSNSGSSAISGMVDSNRVGAMGWSMGGGGSLILGSGTRLSAVIPLAPWESGSNNFDQMTAPTLIIACENDGTAPVASHASPFYNTIPGTTDKAFLEINGGGHSCANGGGVNG [ESM098]” belongs below 25 µg.
Take “QVVVFEETFSTGLGKFTAAGSVVTSSGAARLDGCYGCTDGSITSTAISTVDFTGLRLSFDRVTSGLDSGEAGIAEFSTNGSTYTAVESIRTASGRVTFNLPTSAENQSGLRLRFRINASLSSETYTVDNIRLEGTSGSGGGTTNPFEKGPDPTKTMLEASTGPFTYTTTTVSSTTASGYRQGTIYHPTNVTGPFAAVAVVPGYLASQSSINWWGPRLASHGFVVITIDTNSTSDQPPSRATQLMAALNQLKTFSNTSSHPIYRKVDPNRLGVMGWSMGGGGTLIAARDNPTLKAAIPFAPWNSSTNFSTVSVPTLIIACESDSTAPVNSHASPFYNSLPSTTKKAYLEMNNGSHSCANSGNSNAGLIGKYGVSWMKRFMDNDTRFSPYLCGAPHQADLSLTAIDEYRENCPY [TEP066]”: the “purified protein yield per well” value is below 25 µg.
For the sequence “VQNGPNPTLDAIKADGPYAITSQAVAGNGFGAGTIYMPTAAGKYALVAICPGFVSAQSTMAGMAKRLATHGFVVVAISTNTLFDFPSSRATQLLAALKTVSALNTGAVVGKIDTTRQAVSGWSMGGGGTLEAAGATPGLVAAVAFAPWDTSTTKMKVNKVPAAIIGGSSDVIAPVASHSQKFYDAIPATTPKLLAVINGADHFFPTKASEPASYTNISWMKRFADGDTRYSSFLNGNDAALSSFSSNGPF [ESM056]”, the “purified protein yield per well” value was below 25 µg.
